This is an account of results in patent publication US6812017B2, “Mammalian secreted group IIF phospholipase A2” (Centre National de la Recherche Scientique - CNRS, priority 2000, dated 2004).

For assay [1] the following is noted: from references [8], [16]; cited from earlier work.
Assay [2] is described as follows: Ca2+-dependence of the hydrolysis of phosphatidylcholine vesicles. In kind it is biochemical. The method, then:
(§1) FIGS. 4A-4C represent the enzymatic properties of recombinant hGIIF sPLA2. […] Full experimental details are provided in materials and methods.
(§2) The Ca^2+ and pH dependencies of hGIIF sPLA2 were measured with POPC vesicles containing 1-palmitoyl-2-[1-^3H]palmitoyl-sn-glycero-3-phospho9choline vesicles and POPG vesicles containing 1-palmitoyl-2-[1-^3H]palmitoyl-sn-glycero-3-phosphoglyceril, respectively. Substrate specificity studies were carried out using a slightly modified assay with the fatty acid binding protein [7]. Reaction mixtures contained 30 μM POPC, POPG, or POPS (1-Palmitoyl-2-Oleoyl-sn-Glcero-3-phosphoserine) large […] vesicles (0.1 μm, prepared by extrusion as described [222[) in Hanks' balanced salt solution with 1 mM Ca^2+, 1 mM Mg^2+, 9.7 μg fatty acid binding protein, and 1 μm 11-dansyl-undecanoic acid at 37° C. Assays were calibrated by adding a known amount of oleic acid to the complete assay in the absence of enzyme.

A short description of assay [3]: pH-dependence of the hydrolysis of phosphatidylglycerol vesicles. In kind it is biochemical. The method, then:
as §1, §2

Assay [4] can be described thus: Substrate specificity, fatty acid binding protein assay on phospholipid vesicles. In kind it is biochemical. Particulars: 30 μM vesicles, 1 mM Ca2+, 37° C. The method, then:
as §1, §2

B1: hGIIA sPLA2: human group IIA secreted phospholipase A2 (protein)
chain: MKTLLLLAVIMIFGLLQAHGNLVNFHRMIKLTTGKEAALSYGFYGCHCGVGGRGSPKDATDRCCVTHDCCYKRLEKRGCGTKFLSYKFSNSGSRITCAKQDSCRSQLCECDKAAATCFARNKTTYNKKYQYYSNKHCRGSTPRC
For the molecule B1, the “preference for POPG versus POPC vesicles” value in assay [1] is recorded as “greater than 10^5 fold”.

B2: hGIIF sPLA2: novel human secreted group IIF phospholipase A2, recombinantly expressed in E. coli; 168 amino acid sequence, mature protein 148 residues (protein)
chain: MKKFFTVAILAGSVLSTAHGSLLNLKAMVEAVTGRSAILSFVGYGCYCGLGGRGQPKDEVDWCCHAHDCCYQELFDQGCHPYVDHYDHTIENNTEIVCSDLNKTECDKQTCMCDKNMVLCLMNQTYREEYRGFLNVYCQGPTPNCSIYEPPPEEVTCSHQSPAPPAPP
In the case of B2, the “apparent KCa2+” value in assay [2] (PC vesicles as substrate, hyperbolic dependence on Ca2+ concentration) stood at 140 ± 40 µM. Besides, the “Ca2+ dependence of hydrolysis of phospholipid vesicles” value in assay [2] (phospholipid vesicles) is recorded as “strictly Ca^2+ dependent”. For the same molecule, in assay [3], the “rate of hydrolysis of phosphatidylglycerol vesicles versus pH” value is listed as “increases with pH in the range 5-7”. For the same molecule, in assay [4], the “rate of POPC hydrolysis relative to rate of POPG” value is listed as around 6%; the “relative rates for the hydrolysis of POPG, POPS, and POPC vesicles” value is “highest with anionic POPG vesicles”.

B3: hGV: human group V secreted phospholipase A2 (protein)
chain: MKGLLPLAWFLACSVPAVQGGLLDLKSMIEKVTGKNALTNYGFYGCYCGWGGRGTPKDGTDWCCWAHDHCYGRLEEKGCNIRTQSYKYRFAWGVVTCEPGPFCHVNLCACDRKLVYCLKRNLRSYNPQYQYFPNILCS
With B3, the “preference for POPG versus POPC vesicles” value in assay [1] is listed as 3 fold.

B4: hGX: human group X secreted phospholipase A2 (protein)
chain: MLLLLLPSLLLLLLLPGPGSGEASRILRVHRRGILELAGTVGCVGPRTPIAYMKYGCFCGLGGHGQPRDAIDWCCHGHDCCYTRAEEAGCSPKTERYSWQCVNQSVLCGPAENKCQELLCKCDQEIANCLAQTEYNLKYLFYPQFLCEPDSPKCD
For the molecule B4, the “preference for POPG versus POPC vesicles” value in assay [1] was 10 fold.
